# Test results reported in patent publication US20160264649A1.
# B1: PGT-123 (antibody, V domains shown)
# VH: QLHLQESGPGLVKPPETLSLTCSVSGASINDAYWSWIRQSPGKRPEWVGYVHHSGDTNYNPSLKRRVTFSLDTAKNEVSLKLVDLTAADSATYFCARALHGKRIYGIVALGELFTYFYMDVWGKGTAVTVSS
# VL: SSMSVSPGETAKISCGKESIGSRAVQWYQQKPGQPPSLIIYNNQDRPAGVPERFSASPDFRPGTTATLTITNVDAEDEADYYCHIYDARGGTNWVFDRGTTLTVL
# Assays:
# Assay in all cases: cell-based or functional assay
# [1] = biological target: HIV-1 Env of isolate 98CN009 (subtype CRF07_BC) (HIV-1)
# [2] = biological target: HIV-1 Env of isolate MGRM-D-016 (subtype D) (HIV-1)
# [3] = biological target: HIV-1 Env of pseudovirus isolate MGRM-G-004 (subtype G) (HIV-1)
# [4] = biological target: HIV-1 Env of isolate MGRM-D-008 (subtype D) (HIV-1)
# [5] = biological target: HIV-1 Env of isolate MGRM-F1-020 (subtype F) (HIV-1)
# [6] = biological target: HIV-1 Env of isolate 92UG114 (subtype D) (HIV-1)
# [7] = biological target: HIV-1 Env of isolate MGRM-F1-014 (subtype F) (HIV-1)
# [8] = biological target: HIV-1 Env of isolate MGRM-D-002 (subtype D) (HIV-1)
# [9] = biological target: HIV-1 Env of isolate 98CN006 (subtype CRF08_BC) (HIV-1)
# [10] = biological target: HIV-1 Env of isolate 92UG046 (subtype D) (HIV-1)
# [11] = biological target: HIV-1 Env of isolate MGRM-F1-021 (subtype F) (HIV-1)
# [12] = biological target: HIV-1 Env of isolate MGRM-F1-023 (subtype F) (HIV-1)
# [13] = biological target: HIV-1 Env of isolate MGRM-D-013 (subtype D) (HIV-1)
# [14] = biological target: HIV-1 Env of isolate MGRM-D-024 (subtype D) (HIV-1)
# [15] = biological target: HIV-1 Env of isolate MGRM-D-012 (subtype D) (HIV-1)
# [16] = biological target: HIV-1 Env of isolate MGRM-F1-010 (subtype F) (HIV-1)
# [17] = biological target: HIV-1 Env of isolate MGRM-F1-018 (subtype F) (HIV-1)
# [18] = biological target: HIV-1 Env of pseudovirus isolate MGRM-G-001 (subtype G) (HIV-1)
# [19] = biological target: envelope of aMLV pseudovirus (negative control)
# [20] = biological target: HIV-1 Env of isolate MGRM-D-005 (subtype D) (HIV-1)
# [21] = biological target: HIV-1 Env of isolate MGRM-F1-017 (subtype F) (HIV-1)
# [22] = biological target: HIV-1 Env of isolate 92UG024 (subtype D) (HIV-1)
# [23] = biological target: HIV-1 Env of pseudovirus isolate MGRM-G-016 (subtype G) (HIV-1)
# [24] = biological target: HIV-1 Env of pseudovirus isolate MGRM-G-024 (subtype G) (HIV-1)
# [25] = biological target: HIV-1 Env of pseudovirus isolate MGRM-G-025 (subtype G) (HIV-1)
# [26] = biological target: HIV-1 Env of isolate MGRM-D-003 (subtype D) (HIV-1)
# [27] = biological target: HIV-1 Env of pseudovirus isolate MGRM-G-014 (subtype G) (HIV-1)
# [28] = biological target: HIV-1 Env of pseudovirus isolate MGRM-G-009 (subtype G) (HIV-1)
# [29] = biological target: HIV-1 Env of isolate MGRM-D-026 (subtype D) (HIV-1)
# [30] = biological target: HIV-1 Env of pseudovirus isolate MGRM-G-017 (subtype G) (HIV-1)
# [31] = biological target: HIV-1 Env of pseudovirus isolate MGRM-G-011 (subtype G) (HIV-1)
# [32] = biological target: HIV-1 Env of isolate MGRM-D-019 (subtype D) (HIV-1)
# [33] = biological target: HIV-1 Env of isolate 92UG001 (subtype D) (HIV-1)
# [34] = biological target: HIV-1 Env of isolate 92UG005 (subtype D) (HIV-1)
# [35] = biological target: HIV-1 Env of isolate MGRM-F1-004 (subtype F) (HIV-1)
# [36] = biological target: HIV-1 Env of isolate MGRM-D-021 (subtype D) (HIV-1)
# [37] = biological target: HIV-1 Env of isolate MGRM-D-014 (subtype D) (HIV-1)
# [38] = biological target: HIV-1 Env of isolate MGRM-F1-008 (subtype F) (HIV-1)
# [39] = biological target: HIV-1 Env of isolate MGRM-D-011 (subtype D) (HIV-1)
# [40] = biological target: HIV-1 Env of pseudovirus isolate MGRM-G-006 (subtype G) (HIV-1)
# [41] = biological target: HIV-1 Env of pseudovirus isolate MGRM-G-027 (subtype G) (HIV-1)
# [42] = biological target: HIV-1 Env of isolate MGRM-D-022 (subtype D) (HIV-1)
# [43] = biological target: HIV-1 Env of isolate MGRM-F1-016 (subtype F) (HIV-1)
# [44] = biological target: HIV-1 Env of isolate MGRM-D-029 (subtype D) (HIV-1)
# [45] = biological target: HIV-1 Env of pseudovirus isolate MGRM-G-013 (subtype G) (HIV-1)
# [46] = biological target: HIV-1 Env of isolate MGRM-D-004 (subtype D) (HIV-1)
# [47] = biological target: HIV-1 Env of isolate MGRM-D-001 (subtype D) (HIV-1)
# [48] = biological target: HIV-1 Env of isolate MGRM-D-018 (subtype D) (HIV-1)
# [49] = biological target: HIV-1 Env of isolate MGRM-F1-013 (subtype F) (HIV-1)
# [50] = biological target: HIV-1 Env of isolate MGRM-D-020 (subtype D) (HIV-1)
# [51] = biological target: HIV-1 Env of pseudovirus isolate MGRM-G-015 (subtype G) (HIV-1)
# [52] = biological target: HIV-1 Env of isolate MGRM-D-028 (subtype D) (HIV-1)
# [53] = biological target: HIV-1 Env of isolate MGRM-F1-012 (subtype F) (HIV-1)
# [54] = biological target: HIV-1 Env of isolate MGRM-F1-006 (subtype F) (HIV-1)
# [55] = biological target: HIV-1 Env of isolate MGRM-F1-015 (subtype F) (HIV-1)
# [56] = biological target: HIV-1 Env of pseudovirus isolate MGRM-G-019 (subtype G) (HIV-1)
# [57] = biological target: HIV-1 Env of pseudovirus isolate MGRM-G-028 (subtype G) (HIV-1)
# [58] = biological target: HIV-1 Env of isolate MGRM-F1-022 (subtype F) (HIV-1)
binder,measurement,setting,value
B1,IC50 (neutralization),[1],0.007 µg/mL
same,IC50 (neutralization),[2],> 50 µg/mL
same,IC50,[3],0.181 µg/mL
same,IC50 (neutralization),[4],> 50 µg/mL
same,IC50 (neutralization),[5],0.051 µg/mL
same,IC50 (neutralization),[6],0.005 µg/mL
same,IC50 (neutralization),[7],0.111 µg/mL
same,IC50 (neutralization),[8],0.012 µg/mL
same,IC50 (neutralization),[9],0.008 µg/mL
same,IC50 (neutralization),[10],> 50 µg/mL
same,IC50 (neutralization),[11],0.307 µg/mL
same,IC50 (neutralization),[12],0.053 µg/mL
same,IC50 (neutralization),[13],> 50 µg/mL
same,IC50 (neutralization),[14],0.023 µg/mL
same,IC50 (neutralization),[15],> 50 µg/mL
same,IC50 (neutralization),[16],0.016 µg/mL
same,IC50 (neutralization),[17],0.054 µg/mL
same,IC50,[18],0.009 µg/mL
same,IC50,[19],> 50 µg/mL
same,IC50 (neutralization),[20],> 50 µg/mL
same,IC50 (neutralization),[21],> 50 µg/mL
same,IC50 (neutralization),[22],> 50 µg/mL
same,IC50,[23],> 50 µg/mL
same,IC50,[24],0.032 µg/mL
same,IC50,[25],0.046 µg/mL
same,IC50 (neutralization),[26],3.74 µg/mL
same,IC50,[27],0.005 µg/mL
same,IC50,[28],33.5 µg/mL
same,IC50 (neutralization),[29],> 50 µg/mL
same,IC50,[30],0.026 µg/mL
same,IC50,[31],14.9 µg/mL
same,IC50 (neutralization),[32],> 50 µg/mL
same,IC50 (neutralization),[33],> 50 µg/mL
same,IC50 (neutralization),[34],9.79 µg/mL
same,IC50 (neutralization),[35],1.78 µg/mL
same,IC50 (neutralization),[36],11.1 µg/mL
same,IC50 (neutralization),[37],0.009 µg/mL
same,IC50 (neutralization),[38],> 50 µg/mL
same,IC50 (neutralization),[39],0.012 µg/mL
same,IC50,[40],> 50 µg/mL
same,IC50,[41],0.182 µg/mL
same,IC50 (neutralization),[42],> 50 µg/mL
same,IC50 (neutralization),[43],4.95 µg/mL
same,IC50 (neutralization),[44],> 50 µg/mL
same,IC50,[45],3.97 µg/mL
same,IC50 (neutralization),[46],> 50 µg/mL
same,IC50 (neutralization),[47],0.147 µg/mL
same,IC50 (neutralization),[48],0.007 µg/mL
same,IC50 (neutralization),[49],0.08 µg/mL
same,IC50 (neutralization),[50],0.018 µg/mL
same,IC50,[51],> 50 µg/mL
same,IC50 (neutralization),[52],0.132 µg/mL
same,IC50 (neutralization),[53],22.2 µg/mL
same,IC50 (neutralization),[54],6.89 µg/mL
same,IC50 (neutralization),[55],> 50 µg/mL
same,IC50,[56],0.008 µg/mL
same,IC50,[57],0.008 µg/mL
same,IC50 (neutralization),[58],0.075 µg/mL
